Measurements: patent publication US20230257726A1

Target: SARS-CoV-2 spike protein on spike pseudotyped lentivirus particles or authentic SARS-CoV-2 (SARS-CoV-2) (UniProt P0DTC2)
Assay: cell-based or functional assay

Wild type ACE2(614)-Fc (Fc fusion) was tested, and the IC50 (µg/ml), pseudovirus was 0.43 µg/mL.
